These results are taken from article doi:10.1101/2023.12.09.570830.

For this assay, the target named is UmbC1 (untagged, in the Umb1 particle) (Streptomyces coelicolor A3(2) (endogenous)). As to the kind of experiment: cryo-EM structure.

For orientation: stoichiometry N means a count of units in the complex or per binding partner. UmbB1 (natural protein) had a stoichiometry N of 5.
